Assay results published in patent US20150306238A1, “BACTERIA TARGETING NANOPARTICLES AND RELATED METHODS OF USE” (THE REGENTS OF THE UNIVERSITY OF MICHIGAN, priority 2012, published 2015).
“And” between values parts separate entries of the source, which are not always exact repeats. Equal entries are not always repeated. Where two headings read alike, the source gives them in different places.

Key:
[1] = test system: N^α-Ac-Lys-(D)-Ala-(D)-Ala peptide; assay: SPR binding to vancomycin-susceptible bacterial cell wall model; details: for Kd: (D)-Ala-(D)-Ala surface
From the text: SPR spectroscopy is a real-time kinetic method that allows the measurement of the on-rate constant (kon), the off-rate constant (koff), and equilibrium dissociation constant KD (=koff/kon) for receptor-ligand interactions occurring on the surface (see, e.g., Rao, J.; et al., Chem. Biol. (Cambridge, Mass., U.S.) 1999, 6, 353-359; Rao, J.; et al., J. Am. Chem. Soc. 1999, 121, 2629-2630; Hong, S.; et al., Chem. Biol. (Cambridge, Mass., U.S.) 2007, 14, 107-115; Li, M.-H.; Eur. J. Med. Chem. 2012, 47, 560-572; Plantinga, A.; et al., ACS Med. Chem. Lett. 2011, 2, 363-367; Cooper, M. A.; et al., Bioorg. Med. Chem. 2000, 8, 2609-2616; each herein incorporated by reference in its entirety)). The experiments employed SPR spectroscopy to determine the binding constant KD for dendrimer-based multivalent vancomycin conjugates to the cell wall ligands immobilized on the chip surface as a model for the bacterial cell surface. The model surface was prepared by utilizing each CMS sensor chip which was treated to present N^α-Ac-Lys-(D)-Ala-(D)-Ala or N^α-Ac-(D)-Ala-(D)-Lac as the cell wall precursor on the surface, each representing a vancomycin-susceptible and vancomycin-resistant cell wall model, respectively (see, e.g., Rao, J.; et al., Chem. Biol. (Cambridge, Mass., U.S.) 1999, 6, 353-359; Rao, J.; et al., J. Am. Chem. Soc. 1999, 121, 2629-2630; each herein incorporated by reference in its entirety)). Such a peptide-presenting chip was prepared typically following a N-(3-dimethylaminopropyl)-N′-ethylcarbodiimide (EDC)-based amide coupling method at a surface peptide density of 0.12 ng/mm^2 (equivalent to 2.2×10^11 molecules/mm^2) (see, e.g., Hong, S.; et al., Chem. Biol. (Cambridge, Mass., U.S.) 2007, 14, 107-115; Plantinga, A.; et al., ACS Med. Chem. Lett. 2011, 2, 363-367; each herein incorporated by reference in its entirety)).
SPR spectroscopy. […]

[2] = test system: N^α-Ac-Lys-(D)-Ala-(D)-Lac peptide; details: cited from earlier work
[3] = test system: N^α-Ac-Lys-(D)-Ala-(D)-Lac peptide; assay: SPR binding to vancomycin-resistant bacterial cell wall model
From the text: SPR spectroscopy is a real-time kinetic method that allows the measurement of the on-rate constant (kon), the off-rate constant (koff), and equilibrium dissociation constant KD (=koff/kon) for receptor-ligand interactions occurring on the surface (see, e.g., Rao, J.; et al., Chem. Biol. (Cambridge, Mass., U.S.) 1999, 6, 353-359; Rao, J.; et al., J. Am. Chem. Soc. 1999, 121, 2629-2630; Hong, S.; et al., Chem. Biol. (Cambridge, Mass., U.S.) 2007, 14, 107-115; Li, M.-H.; Eur. J. Med. Chem. 2012, 47, 560-572; Plantinga, A.; et al., ACS Med. Chem. Lett. 2011, 2, 363-367; Cooper, M. A.; et al., Bioorg. Med. Chem. 2000, 8, 2609-2616; each herein incorporated by reference in its entirety)). The experiments employed SPR spectroscopy to determine the binding constant KD for dendrimer-based multivalent vancomycin conjugates to the cell wall ligands immobilized on the chip surface as a model for the bacterial cell surface. […]

[4] = biological target: N^α-Ac-Lys-(D)-Ala-(D)-Ala peptide; details: vancomycin to (D)-Ala-(D)-Ala, literature; cited from earlier work
[5] = test system: Staphylococcus aureus; assay: Turbidity assay (bacterial cell lysis / growth); type: cell-based; details: OD at 650 nm, 24 h
From the text: This example describes bacterial cell lysis experiments. Whether the binding of the vancomycin-conjugated dendrimer to the bacterial membrane causes bacterial cell lysis was next investigated. […] S.; et al., Antimicrob. Agents Chemother. 2009, 53, 3375-3383; herein incorporated by reference in its entirety)). On the other hand, the lack of such a mechanism would be more desirable for the diagnostic applications that aim for bacterial detection, isolation, and enumeration of whole cells. To determine the degree of cell lysis, a turbidity assay was employed. This assay quantitates the bacterial population in a culture by measuring the optical density (OD at 650 nm), and the cell populations are correlated with the degree of lysis (see, e.g., Chung, H. S.; et al., Proc. Natl. Acad. Sci. U.S.A. 2009, 106, 21872-21877; Lunde, C. S.; et al., Antimicrob. Agents Chemother. 2009, 53, 3375-3383; each herein incorporated by reference in its entirety)). Effects of the conjugates I-VI, VIII, IX on the cell growth rate were determined using the same Gram-positive strain Staphylococcus aureus and were presented as a function of the inhibitor concentration (FIGS. 12 and 13). […]
Turbidity assay. […] After incubation of the plates at 37° C. for 24 h, bacterial growth was examined by optical microscopy and reading an optical density (O. D.) value at 650 nm by an ELISA plate reader.

[6] = test system: bacterial cells; details: reported in literature; cited from earlier work
[7] = biological target: N^α-Ac-Lys-(D)-Ala-(D)-Lac peptide; assay: SPR (Biacore X), peptide immobilised on CM5 chip, Langmuir fit
[8] = biological target: N^α-Ac-Lys-(D)-Ala-(D)-Lac peptide; assay: SPR; ratio against free vancomycin
[9] = biological target: N^α-Ac-Lys-(D)-Ala-(D)-Ala peptide; assay: SPR (Biacore X), peptide immobilised on CM5 chip, Langmuir fit
[10] = biological target: N^α-Ac-Lys-(D)-Ala-(D)-Ala peptide; assay: SPR; ratio against free vancomycin
[11] = biological target: N^α-Ac-Lys-(D)-Ala-(D)-Ala peptide; assay: SPR; vancomycin is the reference
[12] = biological target: N^α-Ac-Lys-(D)-Ala-(D)-Lac peptide; assay: SPR; vancomycin is the reference
[13] = biological target: N^α-Ac-Lys-(D)-Ala-(D)-Ala peptide; assay: SPR (Biacore X), peptide immobilised on CM5 chip, Scatchard analysis
[14] = biological target: N^α-Ac-Lys-(D)-Ala-(D)-Lac peptide; assay: as above

Compound	Kd [7] [µM]	koff [7] [s⁻¹]	kon [7] [M⁻¹ s⁻¹]	valency-corrected β (= β ÷ n) [8]	β (multivalent binding enhancement = KD vancomycin ÷ KD G5-(V)n) [8]	Kd [9] [µM]	koff [9] [s⁻¹]	kon [9] [M⁻¹ s⁻¹]	valency-corrected β (= β ÷ n) [10]	β (multivalent binding enhancement = KD vancomycin ÷ KD G5-(V)n) [10]	also measured
CN[C@H](CC(C)C)C(=O)N[C@H]1C(=O)N[C@@H](CC(N)=O)C(=O)N[C@H]2C(=O)N[C@H]3C(=O)N[C@H](C(=O)N[C@H](C(=O)O)c4cc(O)cc(O)c4-c4cc3ccc4O)[C@H](O)c3ccc(c(Cl)c3)Oc3cc2cc(c3O[C@@H]2O[C@H](CO)[C@@H](O)[C@H](O)[C@H]2O[C@H]2C[C@](C)(N)[C@H](O)[C@H](C)O2)Oc2ccc(cc2Cl)[C@H]1O [Vancomycin, vancomycin]	–	–	–	–	–	–	–	–	–	–	Kd [1]: 0.95 µM; Kd ([1]; mean (SEM), vancomycin by Scatchard analysis): 0.95 µM; SPR binding response to the (D)-Ala-(D)-Ala surface ([1]; in words, vancomycin at concentrations as low as 2 nM): no detectable response; reduction in affinity of (D)-Ala-(D)-Lac surface to free vancomycin ([2]; relative to (D)-Ala-(D)-Ala, reported): ~1000 fold; Kd ([2]; vancomycin to (D)-Ala-(D)-Lac, literature): ~1000 µM and 1700 µM; Kd ([3]; (D)-Ala-(D)-Lac surface, mean (SEM), vancomycin by Scatchard analysis): 1500 µM and ~1500 µM; SPR binding response to the (D)-Ala-(D)-Lac surface ([3]; in words): very low responses; Kd [4]: ~1 µM; concentration at which optical density decreased to the background level [5]: ≥ 0.1 µM
CCCCCCCCCCNCCN[C@@]1(C)C[C@H](O[C@H]2[C@H](Oc3c4cc5cc3Oc3ccc(cc3Cl)[C@@H](O)[C@@H](NC(=O)[C@@H](CC(C)C)NC)C(=O)N[C@@H](CC(N)=O)C(=O)N[C@H]5C(=O)N[C@H]3C(=O)N[C@H](C(=O)N[C@H](C(=O)O)c5cc(O)c(CNCP(=O)(O)O)c(O)c5-c5cc3ccc5O)[C@H](O)c3ccc(c(Cl)c3)O4)O[C@H](CO)[C@@H](O)[C@@H]2O)O[C@@H](C)[C@H]1O [telavancin]	–	–	–	–	–	–	–	–	–	–	bactericidal activity / cell lysis [6]: potent bactericidal activity without causing cell lysis
I Ac-G5-(V)1.2	0.0071	0.00066	98000	18000	210000	–	–	–	–	–	–
II Ac-G5-(V)2.3	0.0081	0.00041	320000	81000	190000	0.0034	0.00045	150000	122	280	–
III Ac-G5-(V)3.5	0.002	0.00045	640000	210000	750000	–	–	–	–	–	–
IV Ac-G5-(V)5.8	0.0017	0.00029	690000	150000	880000	0.00025	4.4e-05	450000	655	3800	–
VI GA-G5-(V)6.0	0.0034	0.0028	1.8e+06	74000	440000	0.00054	0.00036	670000	293	1760	–
Vancomycin (peptide)	–	–	–	–	–	–	–	–	–	–	β (multivalent binding enhancement = KD vancomycin ÷ KD G5-(V)n) [11]: 1; β (multivalent binding enhancement = KD vancomycin ÷ KD G5-(V)n) [12]: 1; Kd [13]: 0.95 µM; Kd [14]: 1500 µM
